B1: KLHL12 (parent)
chain: SMTTPRCYVGATVLRGRLYAIAGY
B2: BRF1 (parent)
chain: FVESSGGGSSAVGQFVSLDGAGKT

Variants of: B1
Assay: protein stability index of a GFP-peptide fusion (GPS, HEK-293T) (PSI 1-6); higher = more stable
Conditions: c terminus: a fixed tail appended
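Further: lentivirally expressed fusions sorted by FACS into six bins by GFP to DsRed ratio, PSI derived from sequencing read proportions per bin multiplied by bin number.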

Protein stability index of substitutions, site by site:
Y24: K 2.17, L 2.46, R 1.95, G 2.13, I 2.45, T 1.82, W 2.45, Q 2.45, N 1.75, M 3.33, S 1.27, F 3.7, P 2.64, H 1.43

Variants of: B2
Assay: as above
Conditions: c terminus: a fixed tail appended

Protein stability index, by site and new letter:
S17: P 1.81, L 2.33, T 2.29, Q 2.81, N 2.19, F 1.72, K 1.89, G 3.15, D 2.39, R 1.73, W 2.87, A 3.26, I 1.23, Y 2.45, V 1.99, M 1.57, E 2.53, H 2.54, C 1.83
G7: H 1.68, M 2.05, P 2.34, S 1.78, I 1.81, R 1.38, D 3.52, L 1.52, V 1.61, W 2.54, Q 2.26, A 2.86, E 3.02, N 2.26, T 2.38, C 2.31, K 2.09, F 2.93
F1: M 4.99, E 5.04, W 3.88, Y 2.75, H 4.71, V 4.82, S 5.15, K 4.59, A 4.71, G 5.26, I 4.34, D 5.32, T 5.09, P 5.24, L 4.89, N 5.17, C 4.65, Q 5.13, R 5
V12: E 2.87, R 2.51, I 2.09, Y 1.29, K 2.88, W 3.19, L 1.95, P 1.86, N 3.08, A 2.2, H 2.25, G 2.37, T 1.86, D 3.13, M 2.52, S 2.43, C 2.37, F 2.01
E3: N 1.75, Q 1.78, M 2.71, W 3.35, S 1.33, C 1.88, T 1.43, I 2.62, L 1.17, V 3.03, R 3.14, D 1.97, H 2.01
S10: I 1.37, R 1.98, E 2.31, T 2.72, P 2.57, D 2.75, N 2.31, Y 1.64, V 1.96, M 1.46, L 1.81, G 2.23, C 1.33, K 1.42, H 1.99, Q 2.53
A11: N 2, P 2.42, K 1.41, L 1.77, V 2.4, E 3.28, M 1.63, R 1.39, S 1.95, F 2.02, I 2.41, T 2.06, G 2.28, Q 2.61, H 1.9, C 1.58, D 2.68, Y 1.64
F15: W 2.06, I 2.55, D 4.4, R 2.69, N 2.83, K 3.1, H 3.01, P 3.14, M 2.22, Y 2.59, L 2.27, T 2.96, G 2.68, S 2.73, A 2.31, Q 2.56, E 3.35, V 2.12
G6: R 2.27, D 2.96, Y 2.45, C 1.97, A 2.37, H 1.74, K 2.3, N 1.89, S 2.7, I 1.49, V 2.18, Q 2.66, T 2.53, M 1.76, E 2.94, P 2.23, W 2.5, F 1.45, L 1.97
S9: C 2.22, F 1.49, E 3.38, D 3.03, L 1.77, I 2.39, W 2.93, H 2.17, V 2.58, R 1.68, Y 2.82, P 1.5, Q 2.22, G 2.36, M 1.99, K 1.72, A 2.2, N 2.38, T 2.29
G8: E 3.31, K 2.89, N 2.12, P 2.08, S 2.06, D 2.44, L 2.06, T 2.52, F 1.69, Q 3.27, H 1.51, R 1.32, A 2.36, M 1.71, I 1.84, Y 2.46, C 1.95, V 1.95
S4: I 1.86, E 3.28, K 2.63, Y 1.3, V 2.54, R 2.42, A 1.97, T 2.29, L 1.51, C 3.2, W 2.63, H 2.57, D 2.49, M 1.08, G 2.81, P 2.67, N 2.62, Q 2.72, F 2.01
L18: H 3.25, Q 2.88, K 2.3, T 2.04, R 2, G 2.15, C 2.5, P 2.12, F 1.83, V 2.95, I 2.69, M 2.55, E 3.8, S 2.66, A 2.5, N 3.25, D 2.58
Q14: H 1.68, K 1.72, A 1.73, R 1.39, L 1.04, G 2.06, E 2.89, M 3.29, T 1.86, N 1.9, Y 1.75, P 3.44, I 2.53, D 2.73, S 1.78, C 1.96
G13: S 2.05, R 2.41, K 2.06, P 2.18, M 1.66, W 1.49, E 2.96, T 2.3, F 4.42, Q 1.93, V 2.25, D 3.3, N 1.81, L 2.05, C 1.92, H 1.84, I 1.02
V2: S 4.35, N 4.94, C 3.96, F 4.2, G 4.36, L 4.72, I 3.22, R 4.44, A 3.78, K 4.25, H 3.87, T 4.76, D 5.17, W 4.01, Y 4.16, Q 4.12, P 4.97, E 5.33, M 4.49
V16: T 2.38, H 2.6, M 2.96, F 2.01, K 2.16, N 2.63, R 2.35, A 2.65, Y 1.75, C 3.51, G 2.4, D 2.96, P 2.66, E 3.51, L 2.36, Q 2.97, I 2.18, S 2.83, W 4.22
S5: P 2.01, A 2.57, D 3.37, V 1.75, N 2.65, E 3.68, K 2.58, Q 2.71, R 1.92, M 1.75, G 2.19, L 1.36, C 2.03, I 2.24, Y 1.53, F 3, T 2.62, H 1.81

Reference: the supplement of paper PMC10567573
